Results from article PMC6190850, “The RNA-Recognition Motifs of TAR DNA-Binding Protein 43 May Play a Role in the Aberrant Self-Assembly of the Protein”.

Legend:
Conditions in all cases: protein: recombinant; tags: 6xHis-SUMO removed by TEV; single strand
[1] = target: TDP-43 RRM1-2 (UniProt Q13148 102-269); experiment: BLI; BLI (Octet RED), 10 mM potassium phosphate pH 7.2, 150 mM KCl, 0.05% Tween, 25 C; RNA on streptavidin sensors, protein 1 nM-15 uM
[2] = target: TDP-43 RRM1 (with 15-aa C-terminal linker) (UniProt Q13148 102-191); experiment: as above
[3] = target: TDP-43 RRM2 (UniProt Q13148 192-269); experiment: BLI; no Kd could be determined, protein up to 15 uM; BLI (Octet RED), 10 mM potassium phosphate pH 7.2, 150 mM KCl, 0.05% Tween, 25 C; RNA on streptavidin sensors, protein 1 nM-15 uM
Sequence of TDP-43 RRM2 (Q13148 192-269): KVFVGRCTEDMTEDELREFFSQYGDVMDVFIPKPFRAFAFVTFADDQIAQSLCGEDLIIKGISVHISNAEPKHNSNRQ

Sequence of TDP-43 RRM1-2 (Q13148 102-269): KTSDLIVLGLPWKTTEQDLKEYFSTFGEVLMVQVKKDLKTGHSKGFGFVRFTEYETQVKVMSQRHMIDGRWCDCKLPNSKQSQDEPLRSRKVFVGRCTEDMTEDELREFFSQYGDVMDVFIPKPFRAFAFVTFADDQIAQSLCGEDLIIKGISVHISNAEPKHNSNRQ
Sequence of TDP-43 RRM1 (with 15-aa C-terminal linker) (Q13148 102-191): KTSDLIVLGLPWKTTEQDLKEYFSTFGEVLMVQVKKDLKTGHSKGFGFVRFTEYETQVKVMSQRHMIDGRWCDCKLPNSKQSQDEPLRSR

| Binder | Kd [1] [nM] | Kd [2] [nM] | binding result [3] |
| --- | --- | --- | --- |
| AUUCAUUCACAC (ssRNA) [NegAUG12] | 2600 ± 600 | 2550 ± 480 | no binding |
| GUGUGAAUGAAU (ssRNA) [AUG12] | 3.9 | 480 ± 90 |  |
